Where no end group is shown, it is not given here.
Experiments:
human TGR12 = molecular target: T1, human TGR12 (Homo sapiens, UniProt Q96LB1); assay: MAPK (ERK1/2) activation in human TGR12-expressed CHO cells (western blotting); type: cell-based; settings: CHO-TGR12, PTX 0.1 μg/mL 4 hours before the assay
T1 construct: expressed in transfected cells
T1 sequence (Q96LB1 1-330): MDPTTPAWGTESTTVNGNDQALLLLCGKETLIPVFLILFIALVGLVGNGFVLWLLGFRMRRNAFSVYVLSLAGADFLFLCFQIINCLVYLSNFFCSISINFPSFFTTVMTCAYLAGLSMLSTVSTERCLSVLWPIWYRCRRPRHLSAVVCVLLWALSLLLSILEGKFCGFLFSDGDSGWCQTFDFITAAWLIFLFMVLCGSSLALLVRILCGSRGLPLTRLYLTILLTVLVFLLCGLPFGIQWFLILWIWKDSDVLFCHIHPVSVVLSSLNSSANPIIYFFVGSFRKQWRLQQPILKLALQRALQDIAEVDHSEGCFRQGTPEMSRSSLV
Protocol: CHO/dhfr^− cells (hereinafter CHO) were incubated in α-MEM (Invitrogen) containing 10% fetal calf serum. […] CHO-TGR12 was incubated in nucleic acid-free α-MEM (Invitrogen) containing 10% dialyzed fetal calf serum.
The cells were prepared as follows. […] After centrifugation, the deposited cells were suspended in the medium at 2×10^5 cells/ml and 1 mL each was plated in a 12-well cell culture dish. After incubation overnight in a CO2 incubator, the medium was aspirated and washed with PBS. […] Pertussis toxin (hereinafter PTX) was added at a final concentration of 0.1 μg/mL 4 hours before the assay.
Activation of the cells was performed as follows. The medium was aspirated and washed with PBS.
Detection by SDS-PAGE and western blotting was performed as follows. After resolving on a 10% Bis-Tris gel (Invitrogen), the proteins were transferred onto Immune-Blot PVDF membrane (BIO-RAD). The membrane was blocked in Block Ace (Dainippon Pharmaceutical), incubated at room temperature for an hour using a primary antibody (phospho-p42/p44 MAP kinase (Thr202/Thr204) antibody (CST) or p42/p44 MAP kinase antibody (CST)) and then incubated at room temperature for an hour using a secondary antibody (anti-rabbit IgG (CST)). The membrane after the antibody reaction was visualized by chemiluminescence with ECL PLUS (Amersham Biosciences), followed by detection and image analysis using LAS1000 (FUJI FILM).

[1] = molecular target: T2, TGR12-GFP (fused protein of human TGR12 and GFP, encoded by the DNA of SEQ ID NO: 31), stably expressed on … (human, UniProt Q96LB1 1-330); assay: cell-based or functional assay
T2 sequence: T1 sequence (Q96LB1 1-330)

human TGR12 (untagged) = molecular target: T3, human TGR12 (untagged) (human, UniProt Q96LB1 1-330); assay: cell-based or functional assay
T3 sequence: T1 sequence (Q96LB1 1-330)

[2] = molecular target: T4, TGR12-GFP (fused protein of human TGR12 and GFP, encoded by the DNA of SEQ ID NO: 45), stably expressed on … (human, UniProt Q96LB1 1-330); assay: competition with 200 pM [125I]-rCST14 (Y0) on CHO-TGR12GFP cells, Hill plot
T4 construct: also called TGR12-GFP expression CHO cell line; not shown: GFP (Wako Pure Chemical) fused after the C-terminus of TGR12
T4 sequence: T1 sequence (Q96LB1 1-330)
Protocol: The binding assay using CHO-TGR12GFP was performed as follows. […] After incubation overnight, the cells were washed 3 times with ice-chilled assay buffer (MEM-α, 20 mM HEPES (pH 7.4), 0.05% BSA) and 250 μL of the assay buffer was added thereto. […] After washing 3 times with 500 μL of the assay buffer, the cells were lysed in 250 μL of 0.5N NaOH and the lysate was recovered for measurement of the radioactivity.
Based on the above, non-specific binding was estimated as the activity of 10 μM rat cortistatin-14 and the IC₅₀ value of each peptide was obtained from Hill plot analysis.

Pertussis toxin [PTX]
attenuation by pretreatment of phosphorylation of ERK1/2 with ATP (human TGR12): not observed
effect of pretreatment on phosphorylation of ERK1/2 by substance P (human TGR12): attenuated

B1: human VIP (vasoactive intestinal polypeptide) (peptide, UniProt P01282 125-152, looked up)
peptide: HSDAVFTDNYTRLRKQMAVKKYLNSILN
modifications: not fully specified; ends and bridges not checked
notes: domain: VIP; also called vasoactive intestinal peptide
EC50 in the calcium increasing effect on CHO-TGR12 [1]: ~305 nM
maximum activity in the calcium increasing effect (FLIPR), CHO-TGR12, at 0.3 nM [1]: 56 fluorescence intensity
maximum activity in the calcium increasing effect (FLIPR), CHO-TGR12, at 3 nM [1]: 60 fluorescence intensity
maximum activity in the calcium increasing effect (FLIPR), CHO-TGR12, at 30 nM [1]: 16 fluorescence intensity
maximum activity in the calcium increasing effect (FLIPR), CHO-TGR12, at 300 nM [1]: 11200 fluorescence intensity
maximum activity in the calcium increasing effect (FLIPR), CHO-TGR12, at 3000 nM [1]: 24000 fluorescence intensity
EC50 in the degranulation on LAD 2 (human TGR12 (untagged)): ~105 nM
degranulation of LAD 2 (beta-hexosaminidase release, % of total) at 10 nM (human TGR12 (untagged)): 1.5%
degranulation of LAD 2 (beta-hexosaminidase release, % of total) at 30 nM (human TGR12 (untagged)): 4%
degranulation of LAD 2 (beta-hexosaminidase release, % of total) at 100 nM (human TGR12 (untagged)): 36.7%
degranulation of LAD 2 (beta-hexosaminidase release, % of total) at 300 nM (human TGR12 (untagged)): 63.9%
degranulation of LAD 2 (beta-hexosaminidase release, % of total) at 3 µM (human TGR12 (untagged)): 76.1%
IC50 [2]: 2040 nM

— patent publication US20100068208A1, “Degranulation inhibitor” (priority 2005, published 2010)
